These results are taken from patent US20220332804A1 (CSL INNOVATION, published 2022).

What all share (assay): SPR, KD relative to WT C2;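 note: biacore SPR at 37 °C, anti-C2 mAbs captured on anti-human IgG chips with alanine or serine point mutants of C2 as analyte, KD from 1:1 fit compared with wild-type C2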
(Surface plasmon resonance follows binding to a sensor surface in real time, without labels.)

In one test the target is T1, human C2 F689A (human, UniProt P06681 21-752).
T1 sequence: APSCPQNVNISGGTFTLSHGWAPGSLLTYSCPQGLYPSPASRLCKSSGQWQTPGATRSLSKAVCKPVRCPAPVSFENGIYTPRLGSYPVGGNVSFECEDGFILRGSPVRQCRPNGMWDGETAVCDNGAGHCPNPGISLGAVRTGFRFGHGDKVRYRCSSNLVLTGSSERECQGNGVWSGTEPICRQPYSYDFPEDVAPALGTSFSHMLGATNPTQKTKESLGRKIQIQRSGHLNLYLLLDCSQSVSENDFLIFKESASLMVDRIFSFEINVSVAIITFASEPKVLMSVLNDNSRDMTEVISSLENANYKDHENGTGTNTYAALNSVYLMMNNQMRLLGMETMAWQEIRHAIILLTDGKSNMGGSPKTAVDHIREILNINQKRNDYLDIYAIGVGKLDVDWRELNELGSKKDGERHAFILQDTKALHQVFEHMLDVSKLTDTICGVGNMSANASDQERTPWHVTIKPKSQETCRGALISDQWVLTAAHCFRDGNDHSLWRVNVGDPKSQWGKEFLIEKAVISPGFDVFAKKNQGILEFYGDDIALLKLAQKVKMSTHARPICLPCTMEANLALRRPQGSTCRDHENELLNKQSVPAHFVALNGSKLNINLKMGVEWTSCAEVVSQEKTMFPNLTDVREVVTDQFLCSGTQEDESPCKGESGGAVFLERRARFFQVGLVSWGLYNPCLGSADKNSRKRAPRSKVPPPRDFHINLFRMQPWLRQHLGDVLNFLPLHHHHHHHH

A further test deals with T2, human C2 S278A (human, UniProt P06681 21-752).
T2 sequence: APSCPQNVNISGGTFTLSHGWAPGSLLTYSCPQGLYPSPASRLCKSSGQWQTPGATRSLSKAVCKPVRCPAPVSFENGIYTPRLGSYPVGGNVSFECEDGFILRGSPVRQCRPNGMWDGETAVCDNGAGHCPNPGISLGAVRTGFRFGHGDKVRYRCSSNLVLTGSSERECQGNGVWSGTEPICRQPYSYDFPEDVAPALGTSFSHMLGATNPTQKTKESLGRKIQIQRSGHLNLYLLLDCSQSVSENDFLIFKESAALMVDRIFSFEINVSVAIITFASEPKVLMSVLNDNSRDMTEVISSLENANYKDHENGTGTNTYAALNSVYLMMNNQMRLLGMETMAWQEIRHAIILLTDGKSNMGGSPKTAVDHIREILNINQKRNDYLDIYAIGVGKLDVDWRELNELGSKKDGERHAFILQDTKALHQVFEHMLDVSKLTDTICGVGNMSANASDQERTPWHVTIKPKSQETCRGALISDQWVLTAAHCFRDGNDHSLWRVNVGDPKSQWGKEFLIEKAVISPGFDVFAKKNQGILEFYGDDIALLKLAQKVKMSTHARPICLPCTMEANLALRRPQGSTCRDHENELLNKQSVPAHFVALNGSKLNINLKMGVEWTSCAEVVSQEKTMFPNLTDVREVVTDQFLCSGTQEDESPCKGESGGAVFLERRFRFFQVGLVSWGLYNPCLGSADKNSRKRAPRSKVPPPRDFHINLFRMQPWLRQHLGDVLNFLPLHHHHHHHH

In the next test the target is T3, human C2 N424A (human, UniProt P06681 21-752).
T3 sequence: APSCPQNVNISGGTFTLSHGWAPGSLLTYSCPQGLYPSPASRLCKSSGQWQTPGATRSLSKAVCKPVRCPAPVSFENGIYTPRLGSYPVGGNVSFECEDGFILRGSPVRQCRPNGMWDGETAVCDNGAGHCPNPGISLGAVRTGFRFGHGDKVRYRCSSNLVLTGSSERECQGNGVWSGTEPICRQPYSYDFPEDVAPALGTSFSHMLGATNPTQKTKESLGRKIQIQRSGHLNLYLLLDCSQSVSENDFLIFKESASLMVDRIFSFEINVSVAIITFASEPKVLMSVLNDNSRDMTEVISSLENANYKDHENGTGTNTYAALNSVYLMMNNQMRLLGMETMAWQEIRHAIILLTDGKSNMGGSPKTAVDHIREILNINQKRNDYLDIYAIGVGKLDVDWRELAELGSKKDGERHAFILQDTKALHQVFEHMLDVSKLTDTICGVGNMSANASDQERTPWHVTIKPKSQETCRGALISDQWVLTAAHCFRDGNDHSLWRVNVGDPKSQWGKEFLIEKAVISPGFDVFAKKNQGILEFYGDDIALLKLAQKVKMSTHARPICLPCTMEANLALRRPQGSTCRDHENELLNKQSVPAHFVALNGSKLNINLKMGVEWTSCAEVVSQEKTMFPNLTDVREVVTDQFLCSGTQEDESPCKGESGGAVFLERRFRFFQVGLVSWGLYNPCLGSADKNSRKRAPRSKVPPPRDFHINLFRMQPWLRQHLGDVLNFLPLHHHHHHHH

The next test addresses T4, human C2 H451A (human, UniProt P06681 21-752).
T4 sequence: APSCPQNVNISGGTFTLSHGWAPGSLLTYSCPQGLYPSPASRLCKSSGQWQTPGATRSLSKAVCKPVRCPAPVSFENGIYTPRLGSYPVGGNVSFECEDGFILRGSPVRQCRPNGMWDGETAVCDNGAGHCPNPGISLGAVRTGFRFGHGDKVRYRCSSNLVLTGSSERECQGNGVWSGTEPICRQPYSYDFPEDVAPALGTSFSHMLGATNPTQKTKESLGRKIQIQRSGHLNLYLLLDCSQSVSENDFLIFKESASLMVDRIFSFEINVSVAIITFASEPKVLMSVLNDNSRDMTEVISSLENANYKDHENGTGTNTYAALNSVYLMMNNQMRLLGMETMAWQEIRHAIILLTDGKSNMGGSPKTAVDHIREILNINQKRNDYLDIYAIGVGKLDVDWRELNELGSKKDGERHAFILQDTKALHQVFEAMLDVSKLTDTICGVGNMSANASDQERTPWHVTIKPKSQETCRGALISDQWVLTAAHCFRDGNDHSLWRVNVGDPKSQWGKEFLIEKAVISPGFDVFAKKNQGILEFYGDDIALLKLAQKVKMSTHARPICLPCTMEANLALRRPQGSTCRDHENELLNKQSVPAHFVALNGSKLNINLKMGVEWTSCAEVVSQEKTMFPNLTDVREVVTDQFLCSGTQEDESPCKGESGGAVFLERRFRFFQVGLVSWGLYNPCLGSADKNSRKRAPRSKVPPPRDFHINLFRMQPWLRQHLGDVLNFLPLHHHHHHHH

B1: RF16-242 (antibody, human IgG4 S228P, lambda, V domains shown)
VH: EVQLLQSGAEVKKPGESLKISCKGSGYSFTSYWIGWVRQMPGKGLEWMGIIYPGDSDTRYSPSFQGQVTISADKSISTAYLQWSSLKASDTAMYYCARRGHYGDYFDYWGQGTLVTVSS
VL: SYELTQPPSVSVSPGQTARITCSGDALPKKYAYWYHQKSGQAPVLVIYEDRRRPSEIPERFSGSSSGTMATLTITGAQVEDEGVYFCYSRDRAGNQRVFGGGTQLTVLG
notes: pH-dependent anti-C2 antibody from a phage display library
On to B1, for which the Fold diff came out at 1 fold with human C2 F689A, 1 fold in the test with human C2 S278A, 1 fold with human C2 N424A and 3 fold with human C2 H451A.
